Residue numbers refer to the chain shown, from its start.
B1: TRIDENT-A3 (bispecific antibody, human IgG1, kappa, L234A L235A)
chain 1: DIQMTQSPSSLSASVGDRVTITCRPSQDISNYLNWYQQKPDKTVKLLIYYTSRLRSGVPSRFSGSGSGTDFTFTISSLQPEDIATYFCQQGDTLPYTFGQGTKLEIKGGGSGGGGQVQLVQSGAEVKKPGASVKVSCKASGYTFTSYWINWVKQAPGQGLEWIGNIYPSDSYTNYNQKFKDKATITADKSTSTAYMELSSLRSEDTAVYYCTRDYGSAYSYSLWGQGTTVTVSSASTKGEVAACEKEVAALEKEVAALEKEVAALEKGGGDKTHTCPPCPAPEAAGGPSVFLFPPKPKDTLMISRTPEVTCVVVDVSHEDPEVKFNWYVDGVEVHNAKTKPREEQYNSTYRVVSVLTVLHQDWLNGKEYKCKVSNKALPAPIEKTISKAKGQPREPQVYTLPPSREEMTKNQVSLWCLVKGFYPSDIAVEWESNGQPENNYKTTPPVLDSDGSFFLYSKLTVDKSRWQQGNVFSCSVMHEALHNHYTQKSLSLSPGK
chain 2: DIQMTQSPSSLSASVGDRVTITCRPSQDISNYLNWYQQKPDKTVKLLIYYTSRLRSGVPSRFSGSGSGTDFTFTISSLQPEDIATYFCQQGDTLPYTFGQGTKLEIKGGGSGGGGQVQLVQSGAEVKKPGASVKVSCKASGYTFTSYWINWVKQAPGQGLEWIGNIYPSDSYTNYNQKFKDKATITADKSTSTAYMELSSLRSEDTAVYYCTRDYGSAYSYSLWGQGTTVTVSSASTKGKVAACKEKVAALKEKVAALKEKVAALKE
heavy: QVQLVQSGAEVKKPGASVKVSCKASGYTFTNYGMNWVRQAPGQGLEWMGWINTNIGEPTYTEEFKGRVTMTRDTSISTAYMELSRLRSDDTAVYYCARDDGYGNRVSYWGQGTLVTVSSASTKGPSVFPLAPSSKSTSGGTAALGCLVKDYFPEPVTVSWNSGALTSGVHTFPAVLQSSGLYSLSSVVTVPSSSLGTQTYICNVNHKPSNTKVDKRVEPKSCDKTHTCPPCPAPEAAGGPSVFLFPPKPKDTLMISRTPEVTCVVVDVSHEDPEVKFNWYVDGVEVHNAKTKPREEQYNSTYRVVSVLTVLHQDWLNGKEYKCKVSNKALPAPIEKTISKAKGQPREPQVYTLPPSREEMTKNQVSLSCAVKGFYPSDIAVEWESNGQPENNYKTTPPVLDSDGSFFLVSKLTVDKSRWQQGNVFSCSVMHEALHNRYTQKSLSLSPGK
light: DIQMTQSPSSLSASVGDRVTITCKASQDISNYLSWFQQKPGKAPKTLIYRANRLQSGVPSRFSGSGSGTDFTLTISSLQPEDFATYYCLQHDEFPWTFGQGTKLEIKRTVAAPSVFIFPPSDEQLKSGTASVVCLLNNFYPREAKVQWKVDNALQSGNSQESVTEQDSKDSTYSLSSTLTLSKADYEKHKVYACEVTHQGLSSPVTKSFNRGEC
B2: DART-4 (bispecific antibody, human IgG1, kappa, L234A L235A)
heavy: B1 heavy
light: B1 light
chain 1: QVQLVQSGAEVKKPGASVKVSCKASGYTFTNYGMNWVRQAPGQGLEWMGWINTNIGEPTYTEEFKGRVTMTRDTSISTAYMELSRLRSDDTAVYYCARDDGYGNRVSYWGQGTLVTVSSASTKGPSVFPLAPSSKSTSGGTAALGCLVKDYFPEPVTVSWNSGALTSGVHTFPAVLQSSGLYSLSSVVTVPSSSLGTQTYICNVNHKPSNTKVDKRVEPKSCDKTHTCPPCPAPEAAGGPSVFLFPPKPKDTLMISRTPEVTCVVVDVSHEDPEVKFNWYVDGVEVHNAKTKPREEQYNSTYRVVSVLTVLHQDWLNGKEYKCKVSNKALPAPIEKTISKAKGQPREPQVYTLPPSREEMTKNQVSLWCLVKGFYPSDIAVEWESNGQPENNYKTTPPVLDSDGSFFLYSKLTVDKSRWQQGNVFSCSVMHEALHNHYTQKSLSLSPGGGGSGGGSGGGEIVLTQSPATLSLSPGERATLSCRASQSVSSYLAWYQQKPGQAPRLLIYDASNRATGIPARFSGSGSGTDFTLTISSLEPEDFAVYYCQQRSNWPPALTFGGGTKVEIKGGGSGGGGQVQLQQWGAGLLKPSETLSLTCAVYGGSFSGYYWSWIRQSPEKGLEWIGEINHGGYVTYNPSLESRVTISVDTSKNQFSLKLSSVTAADTAVYYCARDYGPGNYDWYFDLWGRGTLVTVSSGGCGGGEVAALEKEVAALEKEVAALEKEVAALEK
chain 2: EIVLTQSPATLSLSPGERATLSCRASQSVSSYLAWYQQKPGQAPRLLIYDASNRATGIPARFSGSGSGTDFTLTISSLEPEDFAVYYCQQRSNWPPALTFGGGTKVEIKGGGSGGGGQVQLQQWGAGLLKPSETLSLTCAVYGGSFSGYYWSWIRQSPEKGLEWIGEINHGGYVTYNPSLESRVTISVDTSKNQFSLKLSSVTAADTAVYYCARDYGPGNYDWYFDLWGRGTLVTVSSGGCGGGKVAALKEKVAALKEKVAALKEKVAALKE
B3: TRIDENT-A (bispecific antibody, human IgG1, kappa, L234A L235A)
chain 1: B1 chain 1 with A218S, Y221F, S222D, L223Y
chain 2: B1 chain 2 with A218S, Y221F, S222D, L223Y
heavy: B1 heavy
light: B1 light
B4: TRIDENT-A4 (bispecific antibody, human IgG1, kappa, L234A L235A)
chain 1: B1 chain 1 with A218S, S222N, L223V
chain 2: B1 chain 2 with A218S, S222N, L223V
heavy: B1 heavy
light: B1 light
B5: TRIDENT-A2 (bispecific antibody, human IgG1, kappa, L234A L235A)
chain 1: B1 chain 1 with Y221M, L223T
chain 2: B1 chain 2 with Y221M, L223T
heavy: B1 heavy
light: B1 light
B6: DART-E (bispecific antibody, human IgG1, kappa, L234A L235A)
heavy: QVQLQQPGAELVRPGASVKLSCKASGYTFTSYWINWVKQRPGQGLEWIGNIYPSDSYTNYNQKFKDKATLTVDKSSSTAYMQLSSPTSEDSAVYYCTRDYGSSYSFDYWGQGTTLTVSSASTKGPSVFPLAPSSKSTSGGTAALGCLVKDYFPEPVTVSWNSGALTSGVHTFPAVLQSSGLYSLSSVVTVPSSSLGTQTYICNVNHKPSNTKVDKRVEPKSCDKTHTCPPCPAPEAAGGPSVFLFPPKPKDTLMISRTPEVTCVVVDVSHEDPEVKFNWYVDGVEVHNAKTKPREEQYNSTYRVVSVLTVLHQDWLNGKEYKCKVSNKALPAPIEKTISKAKGQPREPQVYTLPPSREEMTKNQVSLSCAVKGFYPSDIAVEWESNGQPENNYKTTPPVLDSDGSFFLVSKLTVDKSRWQQGNVFSCSVMHEALHNRYTQKSLSLSPGK
light: DIQMTQTTSSLSASLGDRVTISCRPSQDISNYLNWYQQKPDGTVKLLIYYTSRLRSGVPSRFSGSGSGTDYSLTISNLEQEDIATYFCQQGDTLPYTFGGGTKLEIKRTVAAPSVFIFPPSDEQLKSGTASVVCLLNNFYPREAKVQWKVDNALQSGNSQESVTEQDSKDSTYSLSSTLTLSKADYEKHKVYACEVTHQGLSSPVTKSFNRGEC
chain 1: QVQLQQPGAELVRPGASVKLSCKASGYTFTSYWINWVKQRPGQGLEWIGNIYPSDSYTNYNQKFKDKATLTVDKSSSTAYMQLSSPTSEDSAVYYCTRDYGSSYSFDYWGQGTTLTVSSASTKGPSVFPLAPSSKSTSGGTAALGCLVKDYFPEPVTVSWNSGALTSGVHTFPAVLQSSGLYSLSSVVTVPSSSLGTQTYICNVNHKPSNTKVDKRVEPKSCDKTHTCPPCPAPEAAGGPSVFLFPPKPKDTLMISRTPEVTCVVVDVSHEDPEVKFNWYVDGVEVHNAKTKPREEQYNSTYRVVSVLTVLHQDWLNGKEYKCKVSNKALPAPIEKTISKAKGQPREPQVYTLPPSREEMTKNQVSLWCLVKGFYPSDIAVEWESNGQPENNYKTTPPVLDSDGSFFLYSKLTVDKSRWQQGNVFSCSVMHEALHNHYTQKSLSLSPGGGGSGGGSGGGDIQMTQSPSSLSASVGDRVTITCKASQDISNYLSWFQQKPGKAPKTLIYRANRLQSGVPSRFSGSGSGTDFTLTISSLQPEDFATYYCLQHDEFPWTFGQGTKLEIKGGGSGGGGQVQLVQSGAEVKKPGASVKVSCKASGYTFTNYGMNWVRQAPGQGLEWMGWINTNIGEPTYTEEFKGRVTMTRDTSISTAYMELSRLRSDDTAVYYCARDDGYGNRVSYWGQGTLVTVSSGGCGGGEVAALEKEVAALEKEVAALEKEVAALEK
chain 2: DIQMTQSPSSLSASVGDRVTITCKASQDISNYLSWFQQKPGKAPKTLIYRANRLQSGVPSRFSGSGSGTDFTLTISSLQPEDFATYYCLQHDEFPWTFGQGTKLEIKGGGSGGGGQVQLVQSGAEVKKPGASVKVSCKASGYTFTNYGMNWVRQAPGQGLEWMGWINTNIGEPTYTEEFKGRVTMTRDTSISTAYMELSRLRSDDTAVYYCARDDGYGNRVSYWGQGTLVTVSSGGCGGGKVAALKEKVAALKEKVAALKEKVAALKE
B7: DART-2 (bispecific antibody)
chain 1: not shown
chain 2: SYELTQPPSVSVSPGQTASITCSGDNIGDQYAHWYQQKPGQSPVLVIYQDKNRPSGIPERFSGSNSGNTATLTISGTQAMDEADYYCATYTGFGSLAVFGGGTKLTVLGGGSGGGGQVQLVQSGAEVKKPGASVKVSCKASGYTFTNYGMNWVRQAPGQGLEWMGWINTNIGEPTYTEEFKGRVTMTRDTSISTAYMELSRLRSDDTAVYYCARDDGYGNRVSYWGQGTLVTVSSGGCGGGKVAACKEKVAALKEKVAALKEKVAALKE

Columns and labels:
[1] = target: T1, HER2/neu on the surface of target cells (N87, JIMT-1, MCF-7, MDA-MB231) (UniProt P04626 23-1255, limits assumed); test: flow cytometry on MCF-7 cells, anti-hFc APC MFI
T1 construct: whole, on cells

[2] = target: T2, CD137 on the surface of cells (activated human T cells; engineered CHO cells) (human, UniProt Q07011 24-255); test: flow cytometry on activated pan T cells (donor D46433, CD8 PE), anti-hFc APC MFI
T2 construct: whole, on cells; also called human CD137; cell surface expressed CD137
T2 sequence (Q07011 24-255, change not shown): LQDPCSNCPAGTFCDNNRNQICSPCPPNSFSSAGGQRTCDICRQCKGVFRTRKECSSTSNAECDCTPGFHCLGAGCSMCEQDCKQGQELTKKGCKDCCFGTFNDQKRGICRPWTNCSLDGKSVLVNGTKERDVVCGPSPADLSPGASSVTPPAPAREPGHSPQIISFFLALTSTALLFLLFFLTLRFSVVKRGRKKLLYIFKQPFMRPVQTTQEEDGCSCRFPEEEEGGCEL

[3] = target: T1, HER2/neu on the surface of target cells …; test: flow cytometry on N87 cells, anti-hFc APC MFI
[4] = target: T1, HER2/neu on the surface of target cells …; test: flow cytometry on JIMT-1 cells, anti-hFc APC MFI
[5] = target: T2, CD137 on the surface of cells …; test: flow cytometry on activated pan T cells gated CD8, anti-hFc APC MFI
[6] = target: T2, CD137 on the surface of cells …; test: as above; remark: listed apart in the source
[7] = target: T1, HER2/neu on the surface of target cells …; test: flow cytometry on N87 gastric cancer cells, anti-hFc APC MFI
[8] = target: T1, HER2/neu on the surface of target cells …; test: as above; remark: listed apart in the source

Binder | EC50 (read off the curve) [1] | EC50 (read off the curve) [2] | EC50 (read off the curve) [3] | EC50 (read off the curve) [4] | EC50 (read off the curve) [5] | EC50 (read off the curve) [6] | binding result [7] | EC50 (read off the curve) [8]
B1 | ~0.2 nM | ~0.05 nM | ~1 nM | ~0.7 nM | – | – | – | –
B2 | – | – | – | – | ~0.3 nM | – | – | –
B3 | ~0.2 nM | ~0.06 nM | ~1 nM | ~0.9 nM | – | – | – | –
B4 | ~0.2 nM | ~0.05 nM | ~1 nM | ~0.7 nM | – | – | – | –
B5 | ~0.2 nM | ~0.04 nM | ~1 nM | ~0.7 nM | – | – | – | –
B6 | – | – | – | – | – | ~0.1 nM | binds | –
B7 | – | – | – | – | – | – | – | ~0.4 nM

Reference: US20220406376A1 (MacroGenics, published 2022)
